Publication PMC4572934

Biological target: GST-tagged FXR ligand binding domain (FXR-LBD)
Test: AlphaScreen or HTRF; FXR coactivator recruitment assay with increasing amounts of mometasone furoate (MF); GST-FXR-LBD on anti-GST acceptor beads, biotinylated SRC-1 peptide on streptavidin donor beads; 1 hour incubation with ligand, then 4 hours with beads

Which efficacy of SRC-1 recruitment with MF compared to CDCA does the source give for “biotinylated SRC-1 peptide (co-activator)” here?
The efficacy of SRC-1 recruitment with MF compared to CDCA was 12%.
